Source: patent publication US7413866B2, “Compositions and methods for detecting and treating diseases and conditions related to chemokine receptors” (ChemoCentryx, Inc., priority 2001, dated 2008)

Columns and labels:
CCR1 [1] = biological target: T1, CCR1 (Homo sapiens, UniProt P32246); experiment: Intracellular Ca2+ mobilization via CCR1; format: cell-based; design: endogenous in cells; host or cells: THP-1, monocytes, neutrophils, immature DC (endogenous); also HEK293-CCR1 and NSO-CCR1 transfectants
T1 sequence (P32246 1-355): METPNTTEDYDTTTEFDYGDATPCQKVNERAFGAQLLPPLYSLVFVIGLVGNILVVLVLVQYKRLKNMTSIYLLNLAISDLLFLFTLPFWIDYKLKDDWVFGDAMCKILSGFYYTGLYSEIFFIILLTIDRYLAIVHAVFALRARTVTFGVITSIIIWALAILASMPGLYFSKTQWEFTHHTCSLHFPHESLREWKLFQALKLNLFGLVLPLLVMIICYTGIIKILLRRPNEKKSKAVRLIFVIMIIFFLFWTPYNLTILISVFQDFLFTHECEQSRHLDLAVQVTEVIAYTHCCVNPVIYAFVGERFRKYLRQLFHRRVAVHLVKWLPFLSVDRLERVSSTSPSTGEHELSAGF

CCR1 [2] = biological target: T1, CCR1; experiment: CCR1 mediated cell migration; format: cell-based
[3] = biological target: T2, CCR1 expressed on NSO transfectants (human, UniProt P32246 1-355); experiment: competition against ^125I MIP-1α on NSO-CCR1 cells
T2 construct: CCR1 transfectant of NSO cells; also called NSO-CCR1
T2 sequence: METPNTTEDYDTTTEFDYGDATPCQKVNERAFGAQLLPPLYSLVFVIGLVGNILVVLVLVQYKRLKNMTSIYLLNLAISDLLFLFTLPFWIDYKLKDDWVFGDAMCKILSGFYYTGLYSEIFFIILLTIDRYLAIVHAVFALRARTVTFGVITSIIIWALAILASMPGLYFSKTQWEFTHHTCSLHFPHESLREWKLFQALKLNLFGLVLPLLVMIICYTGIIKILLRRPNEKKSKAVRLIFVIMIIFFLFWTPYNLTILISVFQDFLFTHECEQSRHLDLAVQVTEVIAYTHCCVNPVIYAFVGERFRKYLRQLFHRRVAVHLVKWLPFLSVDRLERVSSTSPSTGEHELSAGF

[4] = biological target: T3, CCR1 expressed on HEK293 transfectants (human, UniProt P32246 1-355); experiment: competition against ^125I MIP-1α on HEK293-CCR1 cells
T3 construct: CCR1 cDNA transfected into HEK293 cells; also called HEK293-CCR1
T3 sequence: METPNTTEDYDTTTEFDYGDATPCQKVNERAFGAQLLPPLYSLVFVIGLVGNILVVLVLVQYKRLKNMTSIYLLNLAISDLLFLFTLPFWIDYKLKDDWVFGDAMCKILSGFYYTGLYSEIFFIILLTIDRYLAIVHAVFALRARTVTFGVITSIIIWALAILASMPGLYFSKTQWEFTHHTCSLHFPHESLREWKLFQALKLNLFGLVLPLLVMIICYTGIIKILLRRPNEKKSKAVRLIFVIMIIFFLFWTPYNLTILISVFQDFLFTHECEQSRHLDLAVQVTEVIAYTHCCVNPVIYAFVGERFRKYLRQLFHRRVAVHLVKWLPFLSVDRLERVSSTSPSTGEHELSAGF

CCR1 on monocytes = biological target: T4, CCR1 on monocytes (UniProt P32246 1-355); experiment: 125I MIP-1α competition binding on cells; monocytes
T4 chain: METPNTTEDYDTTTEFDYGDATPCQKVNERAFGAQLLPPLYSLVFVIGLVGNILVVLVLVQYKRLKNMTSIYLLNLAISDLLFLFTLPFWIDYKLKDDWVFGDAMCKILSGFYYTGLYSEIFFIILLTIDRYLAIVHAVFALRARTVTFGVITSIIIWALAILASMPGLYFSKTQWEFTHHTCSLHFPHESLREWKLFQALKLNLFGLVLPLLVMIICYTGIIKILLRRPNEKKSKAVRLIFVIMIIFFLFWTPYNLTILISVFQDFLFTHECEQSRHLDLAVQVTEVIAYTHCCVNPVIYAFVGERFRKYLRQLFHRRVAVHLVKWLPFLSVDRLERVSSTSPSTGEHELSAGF

[5] = biological target: T5, CCR1 on THP-1 cells (acute monocytic leukemia) (UniProt P32246 1-355); experiment: 125I MIP-1α competition binding on cells; THP-1 cells
T5 chain: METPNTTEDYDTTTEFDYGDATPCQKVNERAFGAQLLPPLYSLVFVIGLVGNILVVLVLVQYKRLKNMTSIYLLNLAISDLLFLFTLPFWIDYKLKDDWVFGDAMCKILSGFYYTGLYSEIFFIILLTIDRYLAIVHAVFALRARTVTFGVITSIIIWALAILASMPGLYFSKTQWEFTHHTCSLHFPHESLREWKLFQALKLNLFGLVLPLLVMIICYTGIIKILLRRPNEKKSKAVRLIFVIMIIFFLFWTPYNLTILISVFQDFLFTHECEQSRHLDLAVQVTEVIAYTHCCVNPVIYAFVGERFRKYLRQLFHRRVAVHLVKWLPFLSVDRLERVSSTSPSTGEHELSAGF

CXCR4 on CEM-NKr cells = biological target: T6, CXCR4 on CEM-NKr cells (Homo sapiens, UniProt P61073); experiment: 125I SDF-1α competition binding on CEM-NKr cells; details: cold competitor array
T6 construct: host or cells: CEM-NKr (whole cells)
Description: Binding Analysis. We employed our technique, DisplaceMax, to examine the global profile of chemokine ligand interaction with CXCR4 on MCF-7 and CEM-NKr cells. This technology employs expanded, efficiency-maximized radioligand binding using filtration protocols as described previously (Kledal T N, et al. Science 277:1656-1659 (1997); Dairaghi, et al. J Biol Chem 274:21569-74 (1999); Gosling, J. et al. J Immunol 164:2851-6 (2000)). […] Where indicated, anti-CXCR4 antibodies or isotype controls were included in the binding reactions. In these experiments cells were pre-incubated with the indicated concentration of antibody for 30 min at 4° C. prior to the addition of radiolabeled chemokine. Small molecules were included in some assays, where indicated. In these assays the compound was added to the plate to the indicated concentration followed by the addition of radiolabeled chemokine. All assays were then incubated for 3 hrs at 4° C. with gentle agitation. […] Scintillant (MicroScint 10, Packard) was added to the wells, and the filters were counted in a Packard Topcount scintillation counter. Data were analyzed and plotted using Prism (GraphPad Prism version 3.0a for Macintosh, GraphPad Software).

[6] = biological target: T7, CXCR4 on MCF-7 cells (Homo sapiens); experiment: 125I SDF-1α competition binding on MCF-7 cells; details: cold competitor array
T7 construct: host or cells: MCF-7 (whole cells)
Description: Binding Analysis. We employed our technique, DisplaceMax, to examine the global profile of chemokine ligand interaction with CXCR4 on MCF-7 and CEM-NKr cells. This technology employs expanded, efficiency-maximized radioligand binding using filtration protocols as described previously (Kledal T N, et al. Science 277:1656-1659 (1997); Dairaghi, et al. J Biol Chem 274:21569-74 (1999); Gosling, J. et al. J Immunol 164:2851-6 (2000)). […] Where indicated, anti-CXCR4 antibodies or isotype controls were included in the binding reactions. In these experiments cells were pre-incubated with the indicated concentration of antibody for 30 min at 4° C. prior to the addition of radiolabeled chemokine. Small molecules were included in some assays, where indicated. In these assays the compound was added to the plate to the indicated concentration followed by the addition of radiolabeled chemokine. All assays were then incubated for 3 hrs at 4° C. with gentle agitation. Following incubation in all binding assays, reactions were aspirated onto PEI-treated GF/B glass filters (Packard) using a cell harvester (Packard) and washed twice (25 mM HEPES, 500 mM NaCl, 1 mM CaCl2, 5 mM MgCl2, adjusted to pH 7.1). Scintillant (MicroScint 10, Packard) was added to the wells, and the filters were counted in a Packard Topcount scintillation counter. Data were analyzed and plotted using Prism (GraphPad Prism version 3.0a for Macintosh, GraphPad Software).

[7] = biological target: T8, CCR1 expressed on NSO transfectants (UniProt P32246 1-355); experiment: 125I MIP-1α competition binding on cells; NSO-CCR1 cells
T8 chain: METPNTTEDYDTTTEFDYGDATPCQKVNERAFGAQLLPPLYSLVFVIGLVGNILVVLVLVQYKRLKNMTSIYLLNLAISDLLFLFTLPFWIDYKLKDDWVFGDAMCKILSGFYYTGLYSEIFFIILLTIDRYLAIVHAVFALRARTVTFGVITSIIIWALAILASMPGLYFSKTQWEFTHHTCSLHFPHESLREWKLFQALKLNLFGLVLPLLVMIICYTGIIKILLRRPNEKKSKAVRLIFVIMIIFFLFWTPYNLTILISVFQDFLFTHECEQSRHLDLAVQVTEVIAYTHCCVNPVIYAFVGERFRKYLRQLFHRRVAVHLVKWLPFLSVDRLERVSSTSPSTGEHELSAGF

[8] = biological target: T9, CCR1 expressed on HEK293 transfectants (UniProt P32246 1-355); experiment: 125I MIP-1α competition binding on cells; HEK293-CCR1 cells
T9 chain: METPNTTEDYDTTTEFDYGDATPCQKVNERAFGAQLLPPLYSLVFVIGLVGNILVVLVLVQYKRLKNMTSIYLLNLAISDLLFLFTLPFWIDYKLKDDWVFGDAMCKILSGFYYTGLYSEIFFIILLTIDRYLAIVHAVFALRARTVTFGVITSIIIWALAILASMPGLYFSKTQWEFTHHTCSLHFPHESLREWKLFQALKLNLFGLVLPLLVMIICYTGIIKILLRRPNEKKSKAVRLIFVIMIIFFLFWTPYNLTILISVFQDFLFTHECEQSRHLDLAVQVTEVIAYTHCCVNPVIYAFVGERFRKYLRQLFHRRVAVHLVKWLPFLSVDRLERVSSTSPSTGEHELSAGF

T7 sequence (P25106 whole entry): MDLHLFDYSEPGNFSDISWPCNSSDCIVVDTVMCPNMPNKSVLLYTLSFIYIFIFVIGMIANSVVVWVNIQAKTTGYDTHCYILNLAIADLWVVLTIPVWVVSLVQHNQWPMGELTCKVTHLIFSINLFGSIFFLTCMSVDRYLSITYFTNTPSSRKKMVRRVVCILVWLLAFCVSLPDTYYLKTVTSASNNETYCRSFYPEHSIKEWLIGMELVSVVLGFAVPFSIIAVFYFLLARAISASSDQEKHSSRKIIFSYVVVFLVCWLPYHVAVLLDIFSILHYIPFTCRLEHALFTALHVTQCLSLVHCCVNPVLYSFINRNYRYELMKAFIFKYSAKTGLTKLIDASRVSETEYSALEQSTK
T6 sequence (P61073 whole entry): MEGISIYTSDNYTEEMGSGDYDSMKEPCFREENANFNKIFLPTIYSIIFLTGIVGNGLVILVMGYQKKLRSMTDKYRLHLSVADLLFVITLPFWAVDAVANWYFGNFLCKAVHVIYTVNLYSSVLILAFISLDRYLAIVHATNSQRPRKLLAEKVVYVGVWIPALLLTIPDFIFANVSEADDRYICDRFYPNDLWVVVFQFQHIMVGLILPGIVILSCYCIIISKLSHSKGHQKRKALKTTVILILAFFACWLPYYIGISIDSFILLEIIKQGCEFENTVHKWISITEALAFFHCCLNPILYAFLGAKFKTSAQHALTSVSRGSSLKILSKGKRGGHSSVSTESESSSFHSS

B1: MIP-1α: CC chemokine, CCR1 ligand (protein)
chain: ADTPTACCFSYTSRQIPQNFIADYFETSSQCSKPGVIFLTKRSRQVCADPSEEWVQKYVSDLELSA
For B1, the “Ca2+ mobilization in HEK293-CCR1, THP-1 and monocytes” value (shortened to “Ca2+ mobilization in HEK293-CCR1”) (CCR1 [1]) was “able to mobilize Ca2+” and the “Ca2+ mobilization in neutrophils” value (CCR1 [1]) was “do not mobilize Ca2+”.

B2: CKβ8 (1-99) (ligand)
chain: RVTKDAETEFMMSKLPLENPVLLDRFHATSADCCISYTPRSIPCSLLESYFETNSECSKPGVIFLTKKGRRFCANPSDKQVQVCMRMLKLDTRIKTRKN
notes: The numbers 1-99 count on the mature chemokine, not on the precursor; also called CCL23 (99-amino acid form)
With B2 the “induction of cell migration, neutrophils” value (CCR1 [2]; CCR1 expressed on neutrophils) was “does not induce cell migration”, the “induction of CCR1 mediated cell migration, THP-1 cells, monocytes and immature DC” value (CCR1 [2]; THP-1 cells, monocytes and immature DC) was “can induce CCR1 mediated cell migration” and the IC50 [3] was 3.9 nM. For the same molecule, the IC50 [4] was 64 nM, the IC50 (CCR1 on monocytes) was 10.3 nM and the IC50 [5] was 6.3 nM. The “Ca2+ mobilization in HEK293-CCR1” value (CCR1 [1]) was “able to mobilize Ca2+” and the “Ca2+ mobilization in neutrophils” value (CCR1 [1]) was “do not mobilize Ca2+”.

B3: mMIP-1γ: CCR1 ligand (protein)
chain: QITHATETKEVQSSLKAQQGLEIEMFHMGFQDSSDCCLSYNSRIQCSRFIGYFPTSGGCTRPGIIFISKRGFQVCANPSDRRVQRCIERLEQNSQPRTYKQ
B3 was tested, and the “Ca2+ mobilization in HEK293-CCR1” value (CCR1 [1]) was “able to mobilize Ca2+” and the “Ca2+ mobilization in neutrophils” value (CCR1 [1]) was “do not mobilize Ca2+”.

B4: HHV8 vMIP-II: viral recombinant chemokine (protein)
chain: LGASWHRPDKCCLGYQKRPLPQVLLSSWYPTSQLCSKPGVIFLTKRGRQVCADKSKDWVKKLMQQLPVTAR
B4 was tested, and the “DisplaceMax displacement of 125I SDF-1α on CEM-NKr, affinity class” value (CXCR4 on CEM-NKr cells) was “potential moderate affinity”.

B5: mI-TAC: murine recombinant chemokine I-TAC (protein)
chain: FLMFKQGRCLCIGPGMKAVKMAEIEKASVIYPSNGCDKVEVIVTMKAHKRQRCLDPRSKQARLIMQAIEKKNFLRRQNM
B5 was tested, and the “DisplaceMax displacement of 125I SDF-1α on MCF-7, affinity class” value [6] was “high affinity”.

B6: Leukotactin (ligand)
chain: SFHFAADCCTSYISQSIPCSLMKSYFETSSECSKPGVIFLTKKGRQVCAKPSGPGVQDCMKKLKPYSI
For B6, the IC50 (CCR1 on monocytes) was < 0.2 nM, the IC50 [5] was < 0.2 nM and the IC50 [7] was 0.02 nM. The IC50 [8] was < 0.2 nM, the “Ca2+ mobilization in HEK293-CCR1” value (CCR1 [1]) was “able to mobilize Ca2+” and the “Ca2+ mobilization in neutrophils” value (CCR1 [1]) was “do not mobilize Ca2+”.
